Reference: article PMC3819287

Target: J17 (pH-sensitive anti-PCSK9 mAb, variant of J16) engineered pH-sensitive variant of J16; substitutions not stated in this article (see ref 9)
Assay: KinExA (kinetic exclusion assay), multi-curve global analysis
Conditions: pH 7.4; room temperature (approximately 23 C); 154 mM NaCl; PBS pH 7.4 (1 mM KH2PO4, 5.6 mM Na2HPO4, 154 mM NaCl)

rhPCSK9 (recombinant human proprotein convertase subtilisin/kexin type 9)
KD: 0.064 nM
